The values that follow come from paper PMC4297519 (Nature, 2014).

The series concerns the molecule itself. The series is described as follows: crystal structure.

B1: human CEACAM1 IgV domain (GST tag removed) (domain or fragment)
chain: QLTTESMPFNVAEGKEVLLLVHNLPQQLFGYSWYKGERVDGNRQIVGYAIGTQQATPGPANSGRETIYPNASLLIQNVTQNDTGFYTLQVIKSDLVNEEATGQFHVY
In the case of B1, the binding result is reported as “binds”.
